# Substitutions are numbered along the chain they refer to. Numbers in names are those of the source.
# T1: CD25 (Homo sapiens (Human), UniProt P01589 22-240)
# T1 construct: also called IL-2R alpha chain
# T1 sequence: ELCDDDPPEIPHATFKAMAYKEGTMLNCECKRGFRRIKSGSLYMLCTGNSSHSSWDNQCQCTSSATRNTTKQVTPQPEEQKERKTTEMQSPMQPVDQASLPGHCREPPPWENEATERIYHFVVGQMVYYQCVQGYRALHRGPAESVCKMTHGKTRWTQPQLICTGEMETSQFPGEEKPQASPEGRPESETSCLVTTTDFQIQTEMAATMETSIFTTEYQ
# B1: human IL-2 mutein polypeptide fused N-terminally to human IgG1 Fc domain (SEQ ID NO: 57) (Fc fusion)
# chain: APTSSSTKKTQLQLEHLLLDLQMILNGINNYKNPKLTRMLTFKFYMPKKATELKHLQCLEEELKPLEEALNLAPSKNFHLRPRDLISDINVIVLELKGSETTFMCEYADETATIVEFLNRWITFSQSIISTLTGGGGSGGGGSGGGGSGGGGSDKTHTCPPCPAPEAAGAPSVFLFPPKPKDTLMISRTPEVTCVVVDVSHEDPEVKFNWYVDGVEVHNAKTKPREEQYNSTYRVVSVLTVLHQDWLNGKEYKCKVSNKALPAPIEKTISKAKGQPREPQVYTLPPSREEMTKNQVSLTCLVKGFYPSDIAVEWESNGQPENNYKTTPPVLDSDGSFFLYSKLTVDKSRWQQGNVFSCSVMHEALHNHYTQKSLSLSPG
# notes: also called IL-2 N88D V69A, Q74P-G4Sx4-Fc
# B2: SEQ ID NO 56 (Fc fusion)
# chain: B1 chain with L118I
# notes: also called IL-2 L118I N88D V69A, Q74P, C125S-G4Sx4-Fc
# B3: SEQ ID NO 53 (Fc fusion)
# chain: B1 chain with L53I
# notes: also called IL-2 L53I N88D V69A, Q74P,C125S-G4Sx4-Fc
# B4: SEQ ID NO 54 (Fc fusion)
# chain: B1 chain with L56I
# notes: also called IL-2 L56I N88D V69A, Q74P, C125S-G4Sx4-Fc
# B5: SEQ ID NO 55 (Fc fusion)
# chain: B1 chain with L80I
# notes: also called IL-2 L80I N88D V69A, C125S Q74P-G4Sx4-Fc
# Target: mouse PD-1 on primary mouse T cell blasts (mouse) (UniProt Q02242)
# Sequence (Q02242 25-288): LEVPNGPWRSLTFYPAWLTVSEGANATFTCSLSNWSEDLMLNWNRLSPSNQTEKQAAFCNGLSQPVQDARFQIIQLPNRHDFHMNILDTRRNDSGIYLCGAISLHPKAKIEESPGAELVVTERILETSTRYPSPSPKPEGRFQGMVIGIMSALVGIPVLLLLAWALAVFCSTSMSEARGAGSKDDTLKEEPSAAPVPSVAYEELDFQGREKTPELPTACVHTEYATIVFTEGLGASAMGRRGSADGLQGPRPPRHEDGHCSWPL
# Experiment: cell-based or functional assay
row,Mouse agonist-CTG: IC50,Molecule
1,2.4 nM,PD-L1 (reference in the table of Example 36) (ligand)

# Target: T1, CD25
# Experiment: ELISA, CD25 coated at 0.5 µg/mL, detection with biotinylated anti-IL-2 polyclonal
# Method: An immunosorbent plate was coated with CD25 at a concentration of 0.5 μg/mL in PBS pH 7.4, 75 μL/well, and incubated overnight at 4° C. Wells were washed with PBS pH 7.4 containing 0.05% Tween-20 (wash buffer) three times, and then blocked with 200 μL/well 1% BSA in PBS pH 7.4 (block buffer) for two hours at room temperature. After three washes with wash buffer IL-2 muteins SEQ ID NO: 53, SEQ ID NO: 54, SEQ ID NO: 55, SEQ ID NO: 56 were diluted to eleven-two fold serial dilution in PBS containing 1% BSA and 0.05% Tween-20 (assay buffer) with 2 nM being the highest concentration. The diluted material was added to the CD25 coated plate at 75 μL/well for 1 hour at room temperature. After three washes with wash buffer, a goat biotinylated anti-IL-2 polyclonal antibody, diluted to 0.05 μg/mL in assay buffer, was added to the plate at 75 μL/well for 1 hour at room temperature. After three washes with wash buffer high sensitivity streptavidin HRP diluted in assay buffer at 1:5000 was added to the plate at 75 μL/well for 15 minutes at room temperature. After three washes with wash buffer and 1 wash with wash buffer (with no Tween-20), the assay was developed with TMB, and stopped with 1N HCL. OD 450 nm was measured. The experiment included appropriate controls for non-specific binding of the molecules to the plate/block in the absence of CD25. […] Additionally, there was no detection of any compound at any concentration tested, when CD25 was not present on the plate surface, indicating none of the test compounds were interacting non-specifically with the plate surface. Thus, the muteins of Example 19 can bind to CD25.
row,EC50,Molecule
1,< 1 nM,B1
2,< 1 nM,B2
3,< 1 nM,B3
4,< 1 nM,B4
5,< 1 nM,B5

# — patent US20210269496A1 (PANDION OPERATIONS, published 2021)
